# B1: Serine/threonine/tyrosine-interacting protein (Homo sapiens), Q8WUJ0 (parent)
# chain: MEDVKLEFPSLPQCKEDAEEWTYPMRREMQEILPGLFLGPYSSAMKSKLPVLQKHGITHIICIRQNIEANFIKPNFQQLFRYLVLDIADNPVENIIRFFPMTKEFIDGSLQMGGKVLVHGNAGISRSAAFVIAYIMETFGMKYRDAFAYVQERRFCINPNAGFVHQLQEYEAIYLAKLTIQMMSPLQIERSLSVHSGTTGSLKRTHEEEDDFGTMQVATAQNG
# Variants of: B1
# Details: with FBXW7, Q969H0-1
# Chain of FBXW7, Q969H0-1 (Q969H0 whole entry): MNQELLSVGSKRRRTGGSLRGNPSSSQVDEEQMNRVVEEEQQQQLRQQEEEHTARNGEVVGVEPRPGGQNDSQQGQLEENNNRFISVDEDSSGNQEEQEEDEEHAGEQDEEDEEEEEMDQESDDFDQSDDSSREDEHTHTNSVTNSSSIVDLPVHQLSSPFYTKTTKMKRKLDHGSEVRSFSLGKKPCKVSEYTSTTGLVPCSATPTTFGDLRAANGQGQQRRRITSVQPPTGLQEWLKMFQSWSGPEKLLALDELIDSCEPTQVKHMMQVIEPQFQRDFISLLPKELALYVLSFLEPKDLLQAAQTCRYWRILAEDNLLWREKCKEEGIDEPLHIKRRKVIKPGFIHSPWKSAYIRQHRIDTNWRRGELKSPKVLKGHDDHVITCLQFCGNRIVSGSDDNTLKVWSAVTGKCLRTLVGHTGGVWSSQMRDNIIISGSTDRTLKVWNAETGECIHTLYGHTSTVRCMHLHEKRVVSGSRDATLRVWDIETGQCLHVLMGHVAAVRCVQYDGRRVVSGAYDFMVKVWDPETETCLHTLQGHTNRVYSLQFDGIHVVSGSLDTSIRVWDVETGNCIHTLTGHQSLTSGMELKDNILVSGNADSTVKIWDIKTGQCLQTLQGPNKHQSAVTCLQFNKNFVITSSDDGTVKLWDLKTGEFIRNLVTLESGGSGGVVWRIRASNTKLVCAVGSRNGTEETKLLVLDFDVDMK
row,effect of a mutation on the interaction,Variant
1,with no effect,G120C

# Reference: IntAct's records for PubMed 28007894
